In patent publication US20190070251A1:

Experiments:
[1] = target: GPR54 G-Protein coupled receptor (cloned human GPR54) (human) (UniProt Q969F8); test: cell-based or functional assay
[2] = target: human δ opioid receptor (human) (UniProt P41143); test: Kd of the radioligand, previously determined under these assay conditions; membranes of CHO-K1 cells with recombinant human δ opioid receptor (OGF series)
[3] = target: human δ opioid receptor (human) (UniProt P41143); test: Kd of the radioligand, previously determined under these assay conditions; membranes of CHO-K1 cells with recombinant human δ opioid receptor (biphalin series)

human δ opioid receptor (human), sequence (P41143 whole entry, stated change not applied): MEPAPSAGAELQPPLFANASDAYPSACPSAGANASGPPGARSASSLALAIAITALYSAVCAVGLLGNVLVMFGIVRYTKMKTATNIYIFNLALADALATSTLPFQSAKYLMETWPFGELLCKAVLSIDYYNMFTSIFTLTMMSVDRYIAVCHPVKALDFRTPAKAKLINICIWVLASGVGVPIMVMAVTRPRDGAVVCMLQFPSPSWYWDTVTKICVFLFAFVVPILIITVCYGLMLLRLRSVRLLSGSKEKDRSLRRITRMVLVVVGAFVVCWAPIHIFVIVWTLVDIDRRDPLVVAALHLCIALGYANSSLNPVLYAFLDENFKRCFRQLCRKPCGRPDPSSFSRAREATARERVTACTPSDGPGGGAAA

Q: Which results are given for Kisspeptin-10 (peptide)?
A: EC50 (nM) of agonist activation at GPR54 (FLIPR calcium flux) [1]: 10 nM; Fold change compared to metastin [1]: 1 fold

Q: How did the Kd [2] turn out when [3H] DPDPE (peptide) was run?
A: The Kd was 3 nM.

Q: What about the Kd [3] of the same substance?
A: Its Kd is 3.9 nM.

Q: For “mono-[mPEG-SBC-30K]-[Kisspeptin-10] (peptide)”, which EC50 (nM) of agonist activation at GPR54; time of release 2 h [1] is on record?
A: The EC50 (nM) of agonist activation at GPR54; time of release 2 h was 200 nM.
